The text below walks through data of IntAct's records for PubMed 9024666.

B1: Apoptosis regulator ced-9 (Caenorhabditis elegans), P41958 (parent)
chain: MTRCTADNSLTNPAYRRRTMATGEMKEFLGIKGTEPTDFGINSDAQDLPSPSRQASTRRMSIGESIDGKINDWEEPRLDIEGFVVDYFTHRIRQNGMEWFGAPGLPCGVQPEHEMMRVMGTIFEKKHAENFETFCEQLLAVPRISFSLYQDVVRTVGNAQTDQCPMSYGRLIGLISFGGFVAAKMMESVELQGQVRNLFVYTSLFIKTRIRNNWKEHNRSWDDFMTLGKQMKEDYERAEAEKVGRRKQNRRWSMIGAGVTAGAIGIVGVVVCGRMMFSLK
partner: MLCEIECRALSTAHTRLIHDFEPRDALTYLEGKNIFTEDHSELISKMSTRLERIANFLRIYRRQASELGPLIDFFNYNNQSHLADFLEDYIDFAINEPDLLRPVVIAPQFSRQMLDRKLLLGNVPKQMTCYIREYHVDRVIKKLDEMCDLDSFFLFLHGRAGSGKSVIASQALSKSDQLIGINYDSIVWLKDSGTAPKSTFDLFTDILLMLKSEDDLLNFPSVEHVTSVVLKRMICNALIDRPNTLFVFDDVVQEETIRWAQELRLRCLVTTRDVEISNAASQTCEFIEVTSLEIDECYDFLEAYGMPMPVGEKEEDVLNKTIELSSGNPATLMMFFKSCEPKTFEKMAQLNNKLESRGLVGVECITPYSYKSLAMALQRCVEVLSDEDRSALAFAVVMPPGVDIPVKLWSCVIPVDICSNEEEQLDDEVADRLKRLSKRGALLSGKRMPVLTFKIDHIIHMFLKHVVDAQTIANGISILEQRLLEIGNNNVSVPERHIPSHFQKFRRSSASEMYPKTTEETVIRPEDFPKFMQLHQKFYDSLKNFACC

In this assay the parent is B1. The following applies: with ced4_caeel ced-4, P30429.
MTRCTADNSLTNPAYRRRTMATGEMKEFLGIKGTEPTDFGINSDAQDLPSPSRQASTRRMSIGESIDGKINDWEEPRLDIEGFVVDYFTHRIRQNGMEWFGAPGLPCGVQPEHEMMRVMGTIFEKKHAENFETFCEQLLAVPRISFSLNQDVVRTVGNAQTDQCPMSYGRLIGLISFGGFVAAKMMESVELQGQVRNLFVYTSLFIKTRIRNNWKEHNRSWDDFMTLGKQMKEDYERAEAEKVGRRKQNRRWSMIGAGVTAGAIGIVGVVVCGRMMFSLK [Y149N]: the “effect of a mutation on the interaction” value is “decreasing interaction”.
